{"source": "paper PMC9092175", "key": {"[1]": {"target": "plant virus-based immunosorbent nanoparticle (VIN): assembled turnip vein clearing virus (TVCV) virion of coat protein Fc-affinity ligand fusion (CP-FcAL) (turnip vein clearing virus | S. aureus) (UniProt Q88922)", "assay": "pull-down; magnetic separation: VIN covalently coupled to superparamagnetic particles (VIN-MP), hIgG in PBS; eluted with 0.2 M glycine buffer pH 2.5"}, "[2]": {"target": "plant virus-based immunosorbent nanoparticle (VIN): assembled turnip vein clearing virus (TVCV) virion of coat protein Fc-affinity ligand fusion (CP-FcAL) (turnip vein clearing virus | S. aureus) (UniProt Q88922)", "assay": "co-sedimentation; affinity sedimentation: purified VIN mixed in free suspension with a pre-purified target; VIN-target complex pelleted (12,000 x g, 10 min for hIgG; 20,000 x g, 20 min for the Fc-fusions); eluted with 0.1 M glycine-HCl pH 2.5; SDS-PAGE and Western blot"}}, "data": [{"substance": "human immunoglobulin G (hIgG) (antibody)", "values": [{"measurement": "binding capacity per mass of magnetic particle (µg hIgG/mg MP)", "setting": "[1]", "result": "> 1000"}, {"measurement": "hIgG binding/elution load per mass of VIN (mg hIgG/mg VIN)", "setting": "[1]", "result": 0.3}, {"measurement": "hIgG elution recovery per mass of VIN, VIN-MP relative to uncoupled VIN", "setting": "[1]", "result": "35 to 55", "unit": "%"}, {"measurement": "recovery of the feed hIgG", "setting": "[1]", "result": 42, "unit": "%"}, {"measurement": "recovery of the feed hIgG", "setting": "[2]", "result": 95, "unit": "%"}]}]}
